Read-outs that look alike come from different tables or passages of the source.
Key:
[1] = molecular target: T1, biotinylated recombinant human Fc(gamma) receptor I (human, UniProt P12314 16-288, biotinylated (site not stated)); assay: ELISA, fusion protein coated, biotinylated rhFc(gamma)RI in solution, pH 7.4
T1 construct: Bought reagent, used as surrogate for canine/feline Fc(gamma)RI; also called rhFc(gamma) receptor I; Fc(gamma)RI
Protocol: (§1) The binding of insulin-Fc fusion proteins to the Fc(gamma) receptor I at pH 7.4 was conducted using an ELISA assay as follows. Since neither canine nor feline Fc(gamma) receptor I was not commercially available, human Fc(gamma) receptor I (i.e., rhFc(gamma) receptor I) was used as a surrogate mammalian receptor. Insulin-Fc compounds were diluted to 10 μg/mL in sodium bicarbonate buffer at pH 9.6 and coated on Maxisorp (Nunc) microtiter plates overnight at 4° C., after which the microplate strips were washed 5 times with PBST (PBS/0.05% Tween-20) buffer and blocked with Superblock blocking reagent (ThermoFisher). Serial dilutions of biotinylated rhFc(gamma) receptor I (recombinant human Fc(gamma)R-I; R&D Systems) were prepared in PBST/10% Superblock buffer from 6000 ng/mL to 8.2 ng/mL and loaded at 100 μL/well onto the microplate strips coated with insulin-Fc fusion protein. The microtiter plate was incubated for 1 hour at room temperature after which the microplate strips were washed 5 times with PBST and then loaded with 100 μL/well of streptavidin-HRP diluted 1:10000 in PBST/10% Superblock buffer. After incubating for 45 min, the microplate strips were washed again 5 times with PBST. TMB was added to reveal the bound Fc(gamma) receptor I proteins and stopped with ELISA stop reagent (Boston Bioproducts). The plate was read in an ELISA plate reader at 450 nm, and the OD values (proportional to the binding of rhFc(gamma) receptor I to insulin-Fc protein) were plotted against log concentrations of rhFc(gamma) receptor I added to each well to generate binding curves using GraphPad Prism software.
Low Fc(gamma) receptor binding is most likely to correlate with minimum immunogenicity.

[2] = molecular target: T1, biotinylated recombinant human …; assay: as above; remark: listed apart in the source
Protocol: as §1
The insulin-Fc fusion protein of SEQ ID NO: 40 was synthesized in HEK293 cells according to the procedure of Example 1 and purified using a Protein A column according to Example 3. The structure of the insulin-Fc fusion protein was confirmed according to Example 4 by non-reducing and reducing CE-SDS, and the sequence was further identified by LC-MS with glycan removal according to Example 5. The protein yield was 174 mg/L at this stage. The % homodimer for the sequence was measured by size-exclusion chromatography according to Example 6 and was determined to be 98.9% resulting in a homodimer titer of 172 mg/L which meets the manufacturing design criteria.

human insulin receptor [3] = molecular target: T2, human insulin receptor (human, UniProt P06213 28-1382); assay: competition with biotinylated RHI on IM-9 cells, flow cytometry, 4 C
T2 construct: whole, on cells; Endogenous receptor on IM-9 cells; also called IR
T2 sequence (P06213 28-1382): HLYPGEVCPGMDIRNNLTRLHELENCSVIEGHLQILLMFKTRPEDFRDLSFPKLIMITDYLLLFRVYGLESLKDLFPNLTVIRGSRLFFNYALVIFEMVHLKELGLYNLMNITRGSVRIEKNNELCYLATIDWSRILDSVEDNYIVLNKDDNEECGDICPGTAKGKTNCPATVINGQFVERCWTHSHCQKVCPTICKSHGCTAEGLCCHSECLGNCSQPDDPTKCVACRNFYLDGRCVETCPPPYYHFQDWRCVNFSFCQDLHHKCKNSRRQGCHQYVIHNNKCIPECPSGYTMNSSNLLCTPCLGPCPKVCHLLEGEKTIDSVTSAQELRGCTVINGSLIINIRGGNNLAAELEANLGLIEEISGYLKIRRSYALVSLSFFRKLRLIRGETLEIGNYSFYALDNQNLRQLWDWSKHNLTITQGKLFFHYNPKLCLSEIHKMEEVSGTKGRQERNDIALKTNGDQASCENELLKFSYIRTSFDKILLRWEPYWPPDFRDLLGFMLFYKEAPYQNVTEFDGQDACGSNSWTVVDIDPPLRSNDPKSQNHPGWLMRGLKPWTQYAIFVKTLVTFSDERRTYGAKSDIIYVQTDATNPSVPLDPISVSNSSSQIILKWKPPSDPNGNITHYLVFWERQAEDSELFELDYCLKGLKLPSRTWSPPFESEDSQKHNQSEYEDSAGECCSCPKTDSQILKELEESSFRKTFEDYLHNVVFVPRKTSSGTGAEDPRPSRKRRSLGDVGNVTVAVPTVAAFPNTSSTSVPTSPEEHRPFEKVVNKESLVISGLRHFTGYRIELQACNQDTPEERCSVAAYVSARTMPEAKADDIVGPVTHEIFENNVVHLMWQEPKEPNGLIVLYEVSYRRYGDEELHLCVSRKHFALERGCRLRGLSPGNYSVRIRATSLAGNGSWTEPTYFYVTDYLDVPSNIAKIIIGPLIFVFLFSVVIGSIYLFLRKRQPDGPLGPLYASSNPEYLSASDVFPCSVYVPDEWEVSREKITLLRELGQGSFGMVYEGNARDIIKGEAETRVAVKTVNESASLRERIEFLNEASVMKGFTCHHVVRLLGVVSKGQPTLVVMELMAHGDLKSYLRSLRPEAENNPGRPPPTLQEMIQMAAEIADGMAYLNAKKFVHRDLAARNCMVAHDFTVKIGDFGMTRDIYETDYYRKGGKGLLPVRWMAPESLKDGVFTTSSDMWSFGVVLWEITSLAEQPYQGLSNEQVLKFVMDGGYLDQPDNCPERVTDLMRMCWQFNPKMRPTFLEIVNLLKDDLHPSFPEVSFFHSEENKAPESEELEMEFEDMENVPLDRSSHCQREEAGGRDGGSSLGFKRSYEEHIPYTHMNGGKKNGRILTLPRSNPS
Protocol: (§2) 40 μL of an IM-9 cell suspension (8×10⁶ cells/mL) was then added to each well by multichannel pipette, mixed again gently and incubated on ice for 30 min to allow competitive binding on the insulin receptor on IM-9 cells. Cells were then washed twice with 275 μL of ice-cold FACS wash buffer (HBSS/2 mM EDTA/0.1% Na-azide+0.5% horse serum) by centrifuging the V-bottom plate at 3000 rpm for 3 min and aspirating the supernatant. Cells were then resuspended in 40 μL of FACS staining medium containing 1:100 diluted Streptavidin-PE (Life Technologies) for 20 min on ice. Cells were then washed once with 275 μL of ice-cold FACS buffer and finally fixed with 3% paraformaldehyde for 10 min at room temp. Cells were then washed once with 275 μL of ice-cold FACS buffer and resuspended in 250 μl of FACS buffer for analysis.
(§3) The V-bottom plates containing cells were then analyzed on a Guava 8-HT flow cytometer (Millipore). Biotinylated-RHI binding to insulin receptor was quantitated by the median fluorescence intensity (MFI) of the cells on the FACS FL-2 channel for each concentration of the test compound. Control wells were labeled only with biotinylated-RHI and were used to calculate the percent (%) inhibition resulting from each test compound concentration. The % inhibition by test compounds of biotinylated-RHI binding on IM-9 cells was plotted against log concentrations of the test compound, and the resulting IC50 values were calculated using GraphPad Prism (GraphPad Software, La Jolla, CA) for the test compounds. Lower IC50 values of the test compound therefore indicate greater levels of biotinylated-RHI inhibition at lower concentrations indicating stronger binding of the insulin-Fc fusion protein to the insulin receptor. A control compound, such as unlabeled recombinant human insulin (RHI) was also used as an internal standard to generate an RHI IC50 against which a given compound IC50 could be ratioed (IC50(compound)/IC50(RHI)). Lower IC50 ratios have more similar binding to RHI (stronger binding to insulin receptor), while higher IC50 ratios have weaker binding to the insulin receptor relative to RHI.

human insulin receptor [4] = molecular target: T2, human insulin receptor; assay: as above; remark: listed apart in the source
Protocol: as §2, §3

biotinylated canine FcRn = biotinylated canine FcRn (canine, UniProt A0A8I3PFR8 25-347, biotinylated (site not stated)); assay: ELISA pH 5.5, fusion protein coated, biotinylated canine FcRn titrated
Sequence of biotinylated canine FcRn (A0A8I3PFR8 entry or part of it): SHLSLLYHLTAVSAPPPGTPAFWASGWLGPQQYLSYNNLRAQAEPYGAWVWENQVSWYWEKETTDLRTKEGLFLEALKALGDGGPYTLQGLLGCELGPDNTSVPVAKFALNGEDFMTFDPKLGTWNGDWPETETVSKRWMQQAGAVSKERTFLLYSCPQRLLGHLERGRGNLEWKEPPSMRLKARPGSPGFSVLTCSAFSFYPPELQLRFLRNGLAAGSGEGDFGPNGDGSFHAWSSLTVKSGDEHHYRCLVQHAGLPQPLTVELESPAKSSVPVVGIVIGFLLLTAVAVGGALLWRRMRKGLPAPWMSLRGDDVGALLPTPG
Protocol: Insulin-Fc fusion proteins comprising Fc fragments of canine or feline origin were diluted to 10 μg/ml in sodium bicarbonate pH 9.6 buffer and coated in duplicate on Maxisorb ELISA plate strips for 1-2 hours at RT. The strips were then washed 4 times with PBST (PBS/0.1% Tween-20) buffer and blocked with Superblock blocking reagent (ThermoFisher). Strips for FcRn binding were then washed again twice with pH 5.5 MES/NaCl/Tween (50 mM MES/l50 mM NaCl/0.1% Tween-20) buffer before addition of the FcRn reagent (biotinylated canine FcRn; Immunitrack). […] Serial dilutions (1:3× dilutions) of biotinylated FcRn reagent were prepared in pH 5.5 MES/NaCl/Tween/10% Superblock buffer at concentrations from 1000 ng/ml to 0.45 ng/ml and loaded at 100 μL/well using a multichannel pipettor onto the strips coated with the insulin-Fc fusion protein compounds. The assay plate was then incubated for 1 hour at room temperature. FcRn binding strips were washed 4 times with pH 5.5 MES/NaCl/Tween buffer and then loaded with 100 μl/well […] diluted 1:10000 in pH 5.5 MES/NaCl/10% Superblock buffer. After incubating for 45 minutes, strips were washed again 4 times with pH 5.5 MES/NaCl/Tween buffer. TMB was finally added to reveal the bound biotinylated-canine FcRn reagent, and the color development was stopped with the ELISA stop reagent. The plate was read in an ELISA plate reader at a wavelength of 450 nm. The OD values (proportional to the binding of canine-FcRn to the insulin-Fc fusion protein test compounds) were plotted against log concentrations of FcRn added to each well to generate binding curves using GraphPad Prism software. EC50 values for each binding curve were calculated to compare between different compounds.

T1 sequence (P12314 16-288 limits assumed): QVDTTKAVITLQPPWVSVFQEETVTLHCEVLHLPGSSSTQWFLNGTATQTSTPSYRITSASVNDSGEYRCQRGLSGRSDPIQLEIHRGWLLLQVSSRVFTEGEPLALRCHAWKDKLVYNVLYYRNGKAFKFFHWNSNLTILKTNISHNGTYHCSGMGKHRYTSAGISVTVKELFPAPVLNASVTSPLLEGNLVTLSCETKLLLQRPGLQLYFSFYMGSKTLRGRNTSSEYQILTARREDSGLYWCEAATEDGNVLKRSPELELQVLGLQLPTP

| Binder | IC50 (human insulin receptor [3]) [nM] | IC50 (human insulin receptor [4]) [nM] | other results |
| --- | --- | --- | --- |
| insulin-Fc fusion protein of SEQ ID NO: 60 (Fc fusion, homodimer; also called cNg-S; cNg-NB139-S) FVNQHLCGSDLVEALALVCGERGFFYTDPTGGGPRRGIVEQCCHSICSLYQLENYCNGGGGAGGGGDCPKCPAPEMLGGPSVFIFPPKPKDTLLIARTPEVTCVVVDLDPEDPEVQISWFVDGKQMQTAKTQPREEQFSGTYRVVSVLPIGHQDWLKGKQFTCKVNNKALPSPIERTISKARGQAHQPSVYVLPPSREELSKNTVSLTCLIKDFFPPDIDVEWQSNGQQEPESKYRTTPPQLDEDGSYFLYSKLSVDKSRWQRGDTFICAVMHEALHNHYTQESLSHSPG |  |  | Ratio to SEQ ID NO: 52 [1]: 0.24 ratio; fold lower Fc(gamma)RI binding than SEQ ID NO: 52 [2]: 4 fold lower |
| insulin-Fc fusion protein of SEQ ID NO: 62 (Fc fusion, homodimer; also called cNg-D; cNg-NB139-D) FVNQHLCGSDLVEALALVCGERGFFYTDPTGGGPRRGIVEQCCHSICSLYQLENYCNGGGGAGGGGDCPKCPAPEMLGGPSVFIFPPKPKDTLLIARTPEVTCVVVDLDPEDPEVQISWFVDGKQMQTAKTQPREEQFDGTYRVVSVLPIGHQDWLKGKQFTCKVNNKALPSPIERTISKARGQAHQPSVYVLPPSREELSKNTVSLTCLIKDFFPPDIDVEWQSNGQQEPESKYRTTPPQLDEDGSYFLYSKLSVDKSRWQRGDTFICAVMHEALHNHYTQESLSHSPG |  |  | Ratio to SEQ ID NO: 52 [1]: 0.44 ratio; fold of Fc(gamma) receptor binding activity against SEQ ID NO: 60 and SEQ ID NO: 64 [2]: ~2 fold |
| insulin-Fc fusion protein of SEQ ID NO: 108 (Fc fusion, about 49% homodimer) FVNQHLCGSDLVEALALVCGERGFFYTDPTGGGPRRGIVEQCCHSICSLYQLENYCNGGGGSGGGGDCPKCPPPEMLGGPSIFIFPPKPKDTLSISRTPEVTCLVVDLGPDDSDVQITWFVDNTQVYTAKTSPREEQFNSTYRVVSVLPILHQDWLKGKEFKCKVNSKSLPSPIERTISKDKGQPHEPQVYVLPPAQEELSRNKVSVTCLIEGFYPSDIAVEWEITGQPEPENNYRTTPPQLDSDGTYFLYSRLSVDRSRWQRGNTYTCSVSHEALHSHHTQKSLTQSPG | 62 | 62 |  |
| insulin-Fc fusion protein of SEQ ID NO: 112 (Fc fusion, Feline IgG2 Fc, B16A insulin polypeptide; homodimer) FVNQHLCGSDLVEALALVCGERGFFYTDPTGGGPRRGIVEQCCHSICSLYQLENYCNGGGGSGGGGGEGPKCPVPEIPGAPSVFIFPPKPKDTLSISRTPEVTCLVVDLGPDDSNVQITWFVDNTEMHTAKTRPREEQFNSTYRVVSVLPILHQDWLKGKEFKCKVNSKSLPSAMERTISKAKGQPHEPQVYVLPPTQEELSENKVSVTCLIKGFHPPDIAVEWEITGQPEPENNYQTTPPQLDSDGTYFLYSRLSVDRSHWQRGNTYTCSVSHEALHSHHTQKSLTQSPG | 53 | 53 |  |
| insulin-Fc fusion protein of SEQ ID NO: 110 (Fc fusion, homodimer) FVNQHLCGSDLVEALALVCGERGFFYTDPTGGGPRRGIVEQCCHSICSLYQLENYCNGGGGAGGGGGEGPKCPVPEIPGAPSVFIFPPKPKDTLSISRTPEVTCLVVDLGPDDSNVQITWFVDNTEMHTAKTRPREEQFNSTYRVVSVLPILHQDWLKGKEFKCKVNSKSLPSAMERTISKAKGQPHEPQVYVLPPTQEELSENKVSVTCLIKGFHPPDIAVEWEITGQPEPENNYQTTPPQLDSDGTYFLYSRLSVDRSHWQRGNTYTCSVSHEALHSHHTQKSLTQSPG |  | 41 |  |
| insulin-Fc fusion protein of SEQ ID NO: 122 (Fc fusion, homodimer) FVNQHLCGSHLVEALELVCGERGFHYGGGGGGSGGGGGIVEQCCTSTCSLDQLENYCGGGGGQGGGGQGGGGQGGGGGGEGPKCPVPEIPGAPSVFIFPPKPKDTLSISRTPEVTCLVVDLGPDDSNVQITWFVDNTEMHTAKTRPREEQFNSTYRVVSVLPILHQDWLKGKEFKCKVNSKSLPSAMERTISKAKGQPHEPQVYVLPPTQEELSENKVSVTCLIKGFHPPDIAVEWEITGQPEPENNYQTTPPQLDSDGTYFLYSRLSVDRSHWQRGNTYTCSVSHEALHSHHTQKSLTQSPG | 2540 |  | EC50 (biotinylated canine FcRn): 3.11 µg/mL |
| insulin-Fc fusion protein of SEQ ID NO: 124 (Fc fusion, homodimer) FVNQHLCGSHLVEALELVCGERGFHYGGGGGGSGGGGGIVEQCCTSTCSLDQLENYCGGGGGQGGGGQGGGGQGGGGGDCPKCPPPEMLGGPSIFIFPPKPKDTLSISRTPEVTCLVVDLGPDDSDVQITWFVDNTQVYTAKTSPREEQFSSTYRVVSVLPILHQDWLKGKEFKCKVNSKSLPSPIERTISKDKGQPHEPQVYVLPPAQEELSRNKVSVTCLIEGFYPSDIAVEWEITGQPEPENNYRTTPPQLDSDGTYFLYSRLSVDRSRWQRGNTYTCSVSHEALHSHHTQKSLTQSPG |  |  | EC50 (biotinylated canine FcRn): 6.92 µg/mL |

Reference: patent US20240101635A1 (AKSTON BIOSCIENCES, published 2024)
